The RNAGym collection of RNA variant scans (doi:10.1073/pnas.2313332121)
This sample holds only a part of the variants without activity.

B1: TPR 5TU (parent)
chain: GGAUCUUCUCGAUCUAACAAAAAAGACAAAUCUGCCACAAAGCUUGAGAGCAUCUUCGGAUGCAGAGGCGGCAGCCUUCGGUGGCGCGAUAGCGCCAACGUUCUCAACUAUGACACGCAAAACGCGUGCUCCGUUGAAUGGAGUUUAUCAUG

Variants of: B1
Assay: polymerase ribozyme fitness, log enrichment relative to wild type (log ratio); higher = more active; in vitro selection for triplet polymerase activity
How it was run: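 Genotype fitness is the logarithm of its enrichment divided by wild-type enrichment, using inverse-variance-weighted averages of replicates. That logarithm is base 2. Enrichment was measured by Illumina sequencing of input and output libraries from one triplicate in vitro selection round, with frozen incubation at −7 °C, on PCR-built, transcribed mutant libraries of each subunit of a heterodimeric triplet polymerase ribozyme, retaining genotypes with ≥10 input reads and ≥1 read per output.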

| Variant | polymerase ribozyme fitness (log ratio) |
| --- | --- |
| GGAUCUUCUCGAUCUAACAAAAAAGACAAAACUGCCACAAAGCUUGAGAGCAUCUUCGGAUGCAGAGGCAGCAGCAUUCGGUGGCGCGAUAGCGCUAACGUUCUCAACUAUGACACGCAAAACGCGUGCUCCGUUGAAUGGAGUUUAUCAUG [U31A G70A C76A C96U] | ≤ -4.2 |
| GGAUCUUCUCGAUCUAACAAAAAAGACAAACCUGCCACAAAGCUUGAGAGCAUCUUCGGAUGCAGAGGCGGCAGCCUUCGGUGGCGCGAUAGUGCCAACGUUCUCAACUAUGACACGCAAAACGCGUGCUUCGUUGAAUGGAGUUUAUCAUG [U31C C93U C131U] | 1.12 |
| GGAUCUUCUCGAUCUAACAAAAAAGACAAACCUGCCACAAAGCUUGAGAGCAUCUUCGGAUGCAGAGGCGGCAGCCUUCGGUGGCGCGAUAGUGCCAACGUUCUCAACUAUGACACGCAGAACGCGUGCUCCGUUGAAUGGAGUUUAUCAUG [U31C C93U A120G] | 0.174 |
| GGAUCUUCUCGAUCUAACAAAAAAGACAAAACUGCCACAAAGCUUGAGAGCAUCUUCGGAUGCAGAUGCGGCAGCCUUCGGUAGAGCGAUAGCGCCAACGUUCGUAACUAUGACACGCAAAACGCGUGCUCCGUUAAAUGGAGUUUAUCAUG [U31A G67U G83A C85A U104G C105U G136A] | ≤ -4.2 |
| GGAUCUUCUCGAUCUAACAAAAAAGACAAAACUGCCACAAAGCUUGAGAGCAUCUUCGGAUGCAGAGGCGGCAGGGUUCGGUGGCGCGAUAGCGCAAACGUUCUCAACUAUGACACGCAAAACGCGUGCUCCGUUGAAUGGAGUGUAUCAUG [U31A C75G C76G C96A U145G] | ≤ -4.2 |
| GGAUCUUCUCGAUCUAACAAAAAAGACAAACCUGCCACAAAGCUUGAGAGCCUCUACGGAUGCAGAGGCGGCAGCCUUCGGCGGCGCGAUAGCGCCAACGUUCUCAUCUAUGACACGCAAAACGCGUGCUCCGUUGAAUGGAGUUUAUCAUG [U31C A52C U56A U82C A107U] | ≤ -4.2 |
| GGAUCUUCUCGAUCUAACAAAAAAGACAAAACUGCCACAAAGCUUGAGAGCAUCUUCCGAUGCAGAGGCGGCACCCUUCGGUGGCGCGAUAGCGCCAACGUUCUCAACUAUGACACGCAAAACGCGUGCUCCGUUGAACGGAGUUAAUCAUG [U31A G58C G74C U139C U146A] | ≤ -4.2 |
| GGAUCUUCUCGAUCUAACAAAAAAGACAAACCUGCCACAACGCUUGAGAGCAUCUUCGGAUGCAGAGGCGGCAGCCUUCGGUGGCGCGAUCGCGGCAACGUUCUCAACUAUGACACGCAAAACGCGUGCUCCGUUGAAAGGACUUUAUCAUG [U31C A41C A91C C95G U139A G143C] | ≤ -4.2 |
| GGAUCUUCUCGAUCUAACAAAAAAGACAAAACUGCCACAAAGCUUGAGAGCAUCUUCGGAUGCAGAGGCGGCAGCCUUCGGUGGCGCGAUAGCGGCAACGUUCUCAACUAUGACACGCAAAACGAGUGCUCCGUUGAAUGGAGUUUAUCAUG [U31A C95G C125A] | -1.34 |
| GGAUCUUCUCGAUCUAACAAAAAAGACAAAACUGCCACAAAGCUUGAGAGCAUAUUCGGAUGCAGAGGCGGCAGCCUUCGGUGUUGCGAUAGCGCCAACGUUCUCAACUAUGACACGCAAAACGCGUGCUCCGUUGAAUGGAGUUUAUCAUG [U31A C54A G84U C85U] | -2.6 |
| GGAUCUUCUCGAUCUAACAAAAAAGACAAACCUGCCACAAAGCUUGAGAGCAUCUUAGGAUGCAGAGGCGGCAGCCUUCGGUUGCGCGAUAGCGCCAACGUUCUCAACUAUGACACGUAAAACUCGUGCUCCGUUGAAUGGCGUUUAUCAUG [U31C C57A G83U C118U G124U A142C] | -2.24 |
| GGAUCUUCUCGAUCUAACAAAAAAGACAAACCUGCGACAAAGCUUGAGAGCAUCUACGGAUGCAGAGGCCGCAGCCUUCGGUGGCGCGAUAGCACCAACGUUCUCAACUAUGACACGCAAAACGCGUGGUCCGUUGAAUGGAGUUUAUCAUG [U31C C36G U56A G70C G94A C129G] | -3 |
| GGAUCUUCUCGAUCUAACAAAAAAGACAAAACUGCCACAAAGCUUGAGAGCAUCUUCGGAUGCAGAGGCGGCAGCCUUCGGUGGCGCGAUAGCGCCUACGUUCUCAACUAUGACACGCAAAACGCGUGCUCCGUUGAAUGGAGUUUAUCAUG [U31A A97U] | -0.316 |
| GGAUCUUCUCGAUCUAACAAAAAAGACAAACCUGCCACAAAGCUUGAGCGCAUCUUCGGAUGCAGAGGCGGCAGCCUUCGGUGGCGCGAUAGCUCCAACGUUCUCAACUAUGACACGCAAUACGCGUGCUCCGUUGAAUGGAGUUUAUCAUG [U31C A49C G94U A121U] | ≤ -4.2 |
| GGAUCUUCUCGAUCUAACAAAAAAGACAAACCUGCCACAAAGCUUGAGAGCAUCUUCGGAUGCAGAGGCGGCAGCCUUCGGUGGGGCGAUAGCGCCAGCGUUCUCAACUAUGACACGCAAAACGCGUGCUCCGUUGAAUGGAGUUUAUCAUG [U31C C85G A98G] | -1.26 |
| GGAUCUUCUCGAUCUAACAAAAAAGACAAAACUGCCACAAAGCUUGAGAGCAUCUUCGGAUGCAGAGGCGGCAGCCUUCGGUGGCGCGAUAGCGCUAAAGUUCUCAACUAUGACACGCAAAACGCGUGCUCCGUUGAAUGGAGUUUAUCAUG [U31A C96U C99A] | -1.23 |
| GGAUCUUCUCGAUCUAACAAAAAAGACAAACCUGCCACAAAGCUUGAGAGAAUCUUCGGAUGCAGAGGUGGCAGCCUUCGAUGGCGCGAUUGCGCCAACGUUCUCAACUAUGACACGCAAAACACGUGCUCCGUUGAAUGGAGGUUAUCAUG [U31C C51A C69U G81A A91U G124A U144G] | ≤ -4.2 |
| GGAUCUUCUCGAUCUAACAAAAAAGACAAAACUGCCAUAAAGCUUGAGAGCAUCUUCGGAUGCAGAGGCGGCAGCCUUCGGUGGCGCGAUAGCGUAAACGUUCUCAACUAUGACACGCAAAACGCGUGCUCCGUUGAAUGGAGUUUAUCAUG [U31A C38U C95U C96A] | -1.16 |
| GGAUCUUCUCGAUCUAACAAAAAAGACAAAACUGCCACAAAGCUUGAGAGCAUCUUCGGAUGCAGAGGCGGCAGCCUUCGGUGGCGCGAUAGCGCCAACGUUCUCAACUAUGACACGCAAAACGCGUGCUCCGAUGAAUGGAGUUUAUCAUG [U31A U134A] | -1.82 |
